Assays:
[1] = molecular target: E. coli produced recombinant human tissue factor rhTF243, purified and lipidated (human) (UniProt P13726); experiment: cell-based or functional assay
[2] = molecular target: lettuce-produced recombinant human tissue factor, full length (263 aa), purified and lipidated (human) (UniProt P13726); experiment: cell-based or functional assay

clot time in prothrombin time (PT) assay, human plasma, 10 nM lipidated rhTF, at antibody concentration of 500 nM [1]: 48 s
clot time in prothrombin time (PT) assay, human plasma, 10 nM lipidated rhTF, without antibody (0 nM) [1]: 25 s
clot time in prothrombin time (PT) assay, human plasma, 10 nM lipidated rhTF, at antibody concentration of 500 nM [2]: 42 s
clot time in prothrombin time (PT) assay, human plasma, 10 nM lipidated rhTF, without antibody (0 nM) [2]: 25 s
B1: Sunol-cH36 (antibody, from another filing, V domains shown)
VH: EIQLQQSGPELVKPGASVQVSCKTSGYSFTDYNVYWVRQSHGKSLEWIGYIDPYNGITIYDQNFKGKATLTVDKSSTTAFMHLNSLTSDDSAVYFCARDVTTALDFWGQGTTLTVSS
VL: DIQMTQSPASQSASLGESVTITCLASQTIDTWLAWYQQKPGKSPQLLIYAATNLADGVPSRFSGSGSGTKFSFKISSLQAEDFVNYYCQQVYSSPFTFGAGTKLELK

Source: patent publication US20070292490A1
